The record followed here is patent US20240092853A1 (Hoffmann-La Roche, published 2024).

B1: IL2v (soluble, from the phagemid, in bacterial supernatant) (ligand)
chain: APASSSTKKTQLQLEHLLLDLQMILNGINNYKNPKLTRMLTAKFAMPKKATELKHLQCLEEELKPLEEVLNGAQSKNFHLRPRDLISNINVIVLELKGSETTFMCEYADETATIVEFLNRWITFAQSIISTLT
notes: human IL-2 with T3A, F42A, Y45A, L72G, C125A; also called parental IL2v; not shown: C-terminal His tag and Flag tag of the phagemid
B2: ExplResIEE.P026.175 (ligand)
chain: B1 chain with Q11E, D20Q, M23E, R81D, D84E, S87E, S130E, T133N
notes: as m5; not shown: C-terminal His tag and Flag tag of the phagemid
B3: ExplResIEE.P026.355 (ligand)
chain: B1 chain with Q11E, L12E, M23Q, R81D, S87E, V91D, S130E, T133Q
notes: as for B2
B4: ExplResIEE.P041.017 (ligand)
chain: APASSSTKKTEEQLEHLLLDLQQILNGINNYKNPKLTRMLTAKFAMPKKATELKHLQCLEEELKPLEEVLNGAQSKNFHLQPRDLIDNINNIVLQLKGSETTFMCEYADETATIVEFLNHWIEFAQSIIETLE
notes: as for B2
B5: ExplResIEE.P031.226 (ligand)
chain: B1 chain with L19D, M23N, R81D, T133E
notes: as for B2
B6: ExplResIEE.P041.242 (ligand)
chain: B1 chain with L19D, R81E, S130E, T133D
notes: as for B2
B7: ExplResIEE.P041.554 (ligand)
chain: B1 chain with L12Q, L19Q, R81H, V91E, T123E, S130E, T133E
notes: as for B2
B8: ExplResIEE.P042.107 (ligand)
chain: B1 chain with K8E, D20E, M23N, R81H, D84Q, S87E, R120H, S130E, T133D
notes: as for B2
B9: ExplResIEE.P041.449 (ligand)
chain: B1 chain with R81Q, S87E, V91D, R120E, S130E, T133D
notes: as for B2
B10: ExplResIEE.P026.237 (ligand)
chain: B1 chain with R81Q, S87E, V91D, T123E, S130E, T133D
notes: as for B2
B11: ExplResIEE.P030.006 (ligand)
chain: B1 chain with R81D, D84Q, S87D, V91N, T123Q, S130E, T133D
notes: as for B2
B12: ExplResIEE.P027.359 (ligand)
chain: B1 chain with Q11E, L19D, R81D, D84E, S130E, T133D
notes: as for B2
B13: ExplResIEE.P030.045 (ligand)
chain: B1 chain with L19D, R81E, D84E, S87Q, R120H, S130E, T133E
notes: as for B2
B14: ExplResIEE.P026.191 (ligand)
chain: B1 chain with L12E, L19D, R81D, R120E, T123E, S130E, T133E
notes: as for B2

Changes are numbered by the printed parent chain. Numbers in names are those of the source.

T1 sequence (chain, as listed by the source limits assumed, chain 1 of 2): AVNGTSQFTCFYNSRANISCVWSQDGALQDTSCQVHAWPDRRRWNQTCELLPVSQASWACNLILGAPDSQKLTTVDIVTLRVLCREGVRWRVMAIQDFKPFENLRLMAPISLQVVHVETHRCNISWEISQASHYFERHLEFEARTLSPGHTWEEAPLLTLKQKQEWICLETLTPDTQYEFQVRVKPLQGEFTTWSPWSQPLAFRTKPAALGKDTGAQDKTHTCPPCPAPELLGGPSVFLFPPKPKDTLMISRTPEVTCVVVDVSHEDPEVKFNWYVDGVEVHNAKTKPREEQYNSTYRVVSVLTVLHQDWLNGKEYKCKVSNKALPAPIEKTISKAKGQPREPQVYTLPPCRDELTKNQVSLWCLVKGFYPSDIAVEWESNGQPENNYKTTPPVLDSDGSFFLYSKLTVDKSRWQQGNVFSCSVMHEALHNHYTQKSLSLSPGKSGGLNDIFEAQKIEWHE
T1 sequence (chain, as listed by the source limits assumed, chain 2 of 2): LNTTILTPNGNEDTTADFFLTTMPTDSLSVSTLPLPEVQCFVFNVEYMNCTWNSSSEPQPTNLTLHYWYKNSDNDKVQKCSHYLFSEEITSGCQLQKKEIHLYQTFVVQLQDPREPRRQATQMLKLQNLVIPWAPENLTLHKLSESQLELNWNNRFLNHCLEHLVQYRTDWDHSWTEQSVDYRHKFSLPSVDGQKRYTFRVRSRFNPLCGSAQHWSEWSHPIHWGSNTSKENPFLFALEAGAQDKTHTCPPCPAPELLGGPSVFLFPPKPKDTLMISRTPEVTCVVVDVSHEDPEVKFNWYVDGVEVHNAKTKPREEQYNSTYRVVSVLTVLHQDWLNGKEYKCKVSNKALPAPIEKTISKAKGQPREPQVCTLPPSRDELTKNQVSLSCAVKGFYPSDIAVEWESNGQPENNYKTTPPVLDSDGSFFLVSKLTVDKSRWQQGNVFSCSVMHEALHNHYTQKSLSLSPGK

The first test concerns the target T1, IL2R(bg)-Fc construct (human IL2R beta extracellular domain fused to Fc(knob) with avi tag, human IL2R gamma … (human, biotin on the C-terminal avi tag (co-expressed BirA))).
T1 construct: Knob-into-hole Fc heterodimer; also called IL2Rβγ; human heterodimeric IL-2 receptor beta/gamma
Description: ELISA: IL2R(bg)-Fc coated ('100nM IL2R coated'), soluble IL2v in bacterial supernatant adjusted to pH 6 or pH 7.4, washing at the same pH, detection with anti-Flag/HRP. The procedure:
Bacterial supernatant was harvested by centrifugation and pH was adjusted to either pH 6 or pH 7.4 using Bis-Tris buffer (final concentration: 50 mM BisTris, 140 mM NaCL). Supernatant was incubated in Neutravidin plates that were previously coated with the biotinylated IL2R(bg)-Fc construct and blocked with BSA. While extensive washing after 1 h was performed with Bis-Tris washing buffer at the respective pH 6 or 7.4 (50 mM BisTris, 140 mM NaCL, 0.1% Tween), all subsequent steps were performed at pH 6 to avoid any pH-dependent secondary effects. Binding of IL2v to the IL2R(bg)-Fc construct was detected via Flag tag by using an anti-Flag/HRP secondary antibody.
(ELISA stands for enzyme-linked immunosorbent assay.)
As to B1, the binding result is recorded as “binds”.

The next test has as its target T1, IL2R(bg)-Fc construct (human IL2R beta …). Description: ELISA: biotinylated IL2R(bg)-Fc coated on neutravidin plates, clone in bacterial supernatant bound at pH 6, washing and 30 min incubation at pH 6 or pH 7.4, detection with anti-Flag/HRP; absorption at pH 6 set to 1. The procedure:
FIG. 3. Binding analysis for the first set of selected pH-dependent IL2v variants to IL2Rfβγ at pH 6 and pH 7.4 by ELISA. Bacterial supernatants containing clonal pH-dependent IL2v variants were incubated with previously coated IL2Rfβγ. Prior to the detection by an anti-Flag/HRP secondary antibody, extensive washing for 30 minutes was performed at pH 6 or pH 7.4. The absorption at pH 6 was normalized to a value of 1 and the ratio of absorption levels was compared.
25 μl of 50 nM biotinylated antigen per well were coated at pH 6 on 384-well neutravidin plates and blocked with 2% BSA (50 mM BisTris 140 mM NaCl, 2% BSA, pH 6). Bacterial supernatants containing soluble variants of IL2v were re-buffered to pH 6, added to the plates and incubated for 1 h. Subsequently, several washing steps were performed at either pH 6 or pH 7.4 followed by an incubation step in washing buffer for 30 min at the respective pH. Binding of pH-dependent IL2v variants to the IL2R(bg)-Fc construct was detected via Flag tag by using an anti-Flag/HRP secondary antibody. Comparison of the signal between the two conditions (pH 6 vs pH 7.4) allowed identifying constructs that bind in a pH-dependent manner. The phagemid expressing the parental IL2v construct was used as an internal pH-independent control. […] (FIG. 3), were selected (SEQ ID NOs 5-19) and converted into one-armed (OA) targeted conjugates.
Take B2: the binding result was “binds”.

Regarding B3, the binding result is recorded as “binds”.

In the case of B4, the binding result is given as “binds”.

With B5, the binding result is listed as “binds”.

Consider B6, for which the binding result is given as “binds”.

For the molecule B7, the binding result was “binds”.

With B8, the binding result is listed as “binds”.

For the molecule B9, the binding result is listed as “binds”.

Take B10: the binding result was “binds”.

Regarding B11, the binding result is listed as “binds”.

Take B12: the binding result was “binds”.

B13: the binding result is reported as “binds”.

B14: the binding result was “binds”.
